Experimental data taken from patent publication US20150344570A1 (published 2015).

Assays:
[1] = target: T1, FcγRIIb (human, UniProt P31994 43-217); assay: SPR (Biacore), antibody captured, FcγR as analyte; relative to GpH7-A5/GpH7-B3/GpL16-k0 = 100
T1 construct: extracellular domain; Soluble extracellular domain with C-terminal His tag, used as analyte in Biacore; also called FcgRIIb; 2b; not shown: His tag attached to the C terminus
T1 sequence (looked up): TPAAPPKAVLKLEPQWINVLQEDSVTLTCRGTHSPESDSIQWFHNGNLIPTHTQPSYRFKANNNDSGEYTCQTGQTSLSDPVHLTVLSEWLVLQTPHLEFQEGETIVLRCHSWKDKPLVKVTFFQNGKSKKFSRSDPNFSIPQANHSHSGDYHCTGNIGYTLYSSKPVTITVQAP
Method: (§1) The heterodimerized antibodies He Abs in which one of the H chains was introduced with an alteration were assayed for their binding activities to each activating FcγR and inhibitory FcγR according to the method described in Example 4. […] The activating FcγRs in FIGS. 26, 27, 28, and 29 are FcγRIa, FcγRIIa (R), FcγRIIa (H), and FcγRIIIa, respectively.
(§2) Analysis of interaction between objective antibody and the FcγR was carried out using Biacore T100 (GE Healthcare). HBS-EP+ (GE Healthcare) was used as the running buffer, and the measurement temperature was set to 25° C. Chips produced by immobilizing the antigen peptide by the amine coupling method to a Series S Sencor Chip CM5 (GE Healthcare), or alternatively, chips produced by allowing preliminarily biotinylated antigen peptides to interact with and immobilize onto a Series S Sensor Chip SA (certified) (GE Healthcare) were used. Antibodies of interest were captured onto an antigen peptide-immobilized chip, and allowed to interact to each FcγR diluted with running buffer. To regenerate and repeatedly use the chip, the antibodies captured on the chip were washed off by reacting 10 mM glycine-HCl, pH 1.5.

[2] = target: T2, FcγRIa (human, UniProt P12314 16-292); assay: as above
T2 construct: extracellular domain; Soluble extracellular domain with C-terminal His tag, used as analyte in Biacore; also called FcgRI; 1a; not shown: His tag attached to the C terminus
Method: as §1, §2

[3] = target: T3, FcγRIIb extracellular domain with C-terminal His tag (human, UniProt P31994 43-217); assay: SPR (Biacore), relative to GpH7-A5/GpH7-B3/GpL16-k0 = 100
T3 construct: extracellular domain; also called 2b; FcgRIIb; not shown: His tag at the C terminus
T3 sequence (looked up): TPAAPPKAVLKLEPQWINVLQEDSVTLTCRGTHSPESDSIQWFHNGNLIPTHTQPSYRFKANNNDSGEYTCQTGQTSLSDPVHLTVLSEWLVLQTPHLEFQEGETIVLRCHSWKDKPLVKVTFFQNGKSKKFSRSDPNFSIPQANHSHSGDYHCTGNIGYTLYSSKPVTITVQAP

[4] = target: T4, FcγRIIIa extracellular domain with C-terminal His tag (human, UniProt P08637 17-208); assay: as above
T4 construct: extracellular domain; also called 3a; FcgRIIIa; not shown: His tag at the C terminus
T4 sequence (P08637 17-208): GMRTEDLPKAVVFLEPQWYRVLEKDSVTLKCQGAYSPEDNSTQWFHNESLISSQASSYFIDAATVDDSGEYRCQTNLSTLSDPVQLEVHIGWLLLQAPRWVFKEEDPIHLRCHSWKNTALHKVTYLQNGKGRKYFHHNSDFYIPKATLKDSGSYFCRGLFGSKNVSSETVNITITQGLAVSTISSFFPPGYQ

T2 sequence (P12314 16-292): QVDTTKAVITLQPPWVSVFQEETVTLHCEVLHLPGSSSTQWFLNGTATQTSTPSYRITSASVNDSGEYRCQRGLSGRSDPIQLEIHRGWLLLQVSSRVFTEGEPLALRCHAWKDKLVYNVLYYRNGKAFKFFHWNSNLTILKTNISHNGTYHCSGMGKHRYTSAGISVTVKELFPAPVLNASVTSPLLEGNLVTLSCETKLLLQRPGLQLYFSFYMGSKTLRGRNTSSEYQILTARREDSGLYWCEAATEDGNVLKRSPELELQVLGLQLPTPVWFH

Row | Binder | He/Con_2b [1] | He/Con_1a [2] | He/Con_2b [3] | He/Con_3a [4]
1 | GpH7-A5/GpH7-B3 variant A327_01G/GpL16-k0 (antibody, human IgG1, kappa, Heterodimerized anti-glypican-3 IgG1; alteration in the GpH7-B3 chain only; also called He Ab) heavy 1: not shown heavy 2: not shown light: DIVMTQSPLSLPVTPGEPASISCQASESLVHSNRNTYLHWYLQKPGQSPQLLIYKVSNRFSGVPDRFSGSGSGTDFTLKISRVEAEDVGVYYCSQNTHVPPTFGQGTKVEIERTVAAPSVFIFPPSDEQLKSGTASVVCLLNNFYPREAKVQWKVDNALQSGNSQESVTEQDSKDSTYSLSSTLTLSKADYEKHKVYACEVTHQGLSSPVTKSFNRGEC | 116 % of control (=100) | 99 % of control (=100) |  | 
2 | GpH7-A5/GpH7-B3 variant A327_18N/GpL16-k0 (antibody, human IgG1, kappa, Heterodimerized anti-glypican-3 IgG1; alteration in the GpH7-B3 chain only; also called He Ab) heavy 1: not shown heavy 2: not shown light: DIVMTQSPLSLPVTPGEPASISCQASESLVHSNRNTYLHWYLQKPGQSPQLLIYKVSNRFSGVPDRFSGSGSGTDFTLKISRVEAEDVGVYYCSQNTHVPPTFGQGTKVEIERTVAAPSVFIFPPSDEQLKSGTASVVCLLNNFYPREAKVQWKVDNALQSGNSQESVTEQDSKDSTYSLSSTLTLSKADYEKHKVYACEVTHQGLSSPVTKSFNRGEC | 113 % of control (=100) | 97.7 % of control (=100) |  | 
3 | GpH7-A5/GpH7-B3 variant S239_06M/GpL16-k0 (antibody, human IgG1, kappa, IgG1, anti-glypican-3; also called He Ab) heavy 1: not shown heavy 2: not shown light: DIVMTQSPLSLPVTPGEPASISCQASESLVHSNRNTYLHWYLQKPGQSPQLLIYKVSNRFSGVPDRFSGSGSGTDFTLKISRVEAEDVGVYYCSQNTHVPPTFGQGTKVEIERTVAAPSVFIFPPSDEQLKSGTASVVCLLNNFYPREAKVQWKVDNALQSGNSQESVTEQDSKDSTYSLSSTLTLSKADYEKHKVYACEVTHQGLSSPVTKSFNRGEC |  |  | 101 % (control = 100) | 78.2 % (control = 100)
4 | GpH7-A5/GpH7-B3 variant S239_07I/GpL16-k0 (antibody, human IgG1, kappa, IgG1, anti-glypican-3; also called He Ab) heavy 1: not shown heavy 2: not shown light: DIVMTQSPLSLPVTPGEPASISCQASESLVHSNRNTYLHWYLQKPGQSPQLLIYKVSNRFSGVPDRFSGSGSGTDFTLKISRVEAEDVGVYYCSQNTHVPPTFGQGTKVEIERTVAAPSVFIFPPSDEQLKSGTASVVCLLNNFYPREAKVQWKVDNALQSGNSQESVTEQDSKDSTYSLSSTLTLSKADYEKHKVYACEVTHQGLSSPVTKSFNRGEC |  |  | 107 % (control = 100) | 79.3 % (control = 100)
5 | GpH7-A5/GpH7-B3 variant S239_08L/GpL16-k0 (antibody, human IgG1, kappa, IgG1, anti-glypican-3; also called He Ab) heavy 1: not shown heavy 2: not shown light: DIVMTQSPLSLPVTPGEPASISCQASESLVHSNRNTYLHWYLQKPGQSPQLLIYKVSNRFSGVPDRFSGSGSGTDFTLKISRVEAEDVGVYYCSQNTHVPPTFGQGTKVEIERTVAAPSVFIFPPSDEQLKSGTASVVCLLNNFYPREAKVQWKVDNALQSGNSQESVTEQDSKDSTYSLSSTLTLSKADYEKHKVYACEVTHQGLSSPVTKSFNRGEC |  |  | 140 % (control = 100) | 95.3 % (control = 100)
6 | GpH7-A5/GpH7-B3 variant S267_01G/GpL16-k0 (antibody, human IgG1, kappa, IgG1, anti-glypican-3; also called He Ab) heavy 1: not shown heavy 2: not shown light: DIVMTQSPLSLPVTPGEPASISCQASESLVHSNRNTYLHWYLQKPGQSPQLLIYKVSNRFSGVPDRFSGSGSGTDFTLKISRVEAEDVGVYYCSQNTHVPPTFGQGTKVEIERTVAAPSVFIFPPSDEQLKSGTASVVCLLNNFYPREAKVQWKVDNALQSGNSQESVTEQDSKDSTYSLSSTLTLSKADYEKHKVYACEVTHQGLSSPVTKSFNRGEC |  |  | 105 % (control = 100) | 53.8 % (control = 100)
7 | GpH7-A5/GpH7-B3 variant S267_03V/GpL16-k0 (antibody, human IgG1, kappa, IgG1, anti-glypican-3; also called He Ab) heavy 1: not shown heavy 2: not shown light: DIVMTQSPLSLPVTPGEPASISCQASESLVHSNRNTYLHWYLQKPGQSPQLLIYKVSNRFSGVPDRFSGSGSGTDFTLKISRVEAEDVGVYYCSQNTHVPPTFGQGTKVEIERTVAAPSVFIFPPSDEQLKSGTASVVCLLNNFYPREAKVQWKVDNALQSGNSQESVTEQDSKDSTYSLSSTLTLSKADYEKHKVYACEVTHQGLSSPVTKSFNRGEC |  |  | 192 % (control = 100) | 30.8 % (control = 100)
8 | GpH7-A5/GpH7-B3 variant S267_06M/GpL16-k0 (antibody, human IgG1, kappa, IgG1, anti-glypican-3; also called He Ab) heavy 1: not shown heavy 2: not shown light: DIVMTQSPLSLPVTPGEPASISCQASESLVHSNRNTYLHWYLQKPGQSPQLLIYKVSNRFSGVPDRFSGSGSGTDFTLKISRVEAEDVGVYYCSQNTHVPPTFGQGTKVEIERTVAAPSVFIFPPSDEQLKSGTASVVCLLNNFYPREAKVQWKVDNALQSGNSQESVTEQDSKDSTYSLSSTLTLSKADYEKHKVYACEVTHQGLSSPVTKSFNRGEC |  |  | 210 % (control = 100) | 66 % (control = 100)
